According to patent publication US20200317768A1 (published 2020):
Where a chain is given by its changes, count along the chain named.

T1: human FcγRIIaH extracellular domain, His-tagged (human, UniProt P12318 34-217)
T1 construct: also called human FcγRIIa (type H); FcgRIIaH; not shown: C-terminal His-tag
T1 sequence: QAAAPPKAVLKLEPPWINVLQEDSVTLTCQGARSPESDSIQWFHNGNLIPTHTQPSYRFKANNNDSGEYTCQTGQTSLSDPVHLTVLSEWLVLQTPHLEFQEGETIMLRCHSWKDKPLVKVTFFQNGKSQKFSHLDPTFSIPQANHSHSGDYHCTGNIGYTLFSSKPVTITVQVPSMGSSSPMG

T2: human FcγRIIb extracellular domain, His-tagged (human, UniProt P31994 43-217)
T2 construct: also called FcgRIIb (human); not shown: C-terminal His-tag
T2 sequence: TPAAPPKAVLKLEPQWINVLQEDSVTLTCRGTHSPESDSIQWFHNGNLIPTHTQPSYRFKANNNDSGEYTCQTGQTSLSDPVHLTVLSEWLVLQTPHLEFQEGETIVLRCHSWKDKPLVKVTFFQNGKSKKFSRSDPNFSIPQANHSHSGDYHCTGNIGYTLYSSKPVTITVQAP

T3: human FcγRIIaR extracellular domain, His-tagged (human, UniProt P12318 34-217)
T3 construct: also called human FcγRIIa (type R); FcgRIIaR; not shown: C-terminal His-tag
T3 chain: T1 sequence with H134R

T4: cynomolgus monkey FcγRIIIaS extracellular domain, His-tagged (cynomolgus monkey, UniProt Q8SPW2 21-206 at identity 1.00))
T4 construct: also called cyno FcγRIIIaS; cynoFcγRIIIaS; not shown: C-terminal His-tag
T4 chain: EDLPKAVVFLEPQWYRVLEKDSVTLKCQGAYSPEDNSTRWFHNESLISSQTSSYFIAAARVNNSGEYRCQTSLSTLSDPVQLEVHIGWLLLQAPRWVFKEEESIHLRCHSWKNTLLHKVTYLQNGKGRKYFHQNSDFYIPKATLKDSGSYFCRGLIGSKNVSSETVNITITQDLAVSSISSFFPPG

T5: cynomolgus monkey FcγRIIa1 extracellular domain, His-tagged (cynomolgus monkey)
T5 construct: also called cyno FcγRIIa1; cynoFcgRIIa1; not shown: C-terminal His-tag
T5 chain: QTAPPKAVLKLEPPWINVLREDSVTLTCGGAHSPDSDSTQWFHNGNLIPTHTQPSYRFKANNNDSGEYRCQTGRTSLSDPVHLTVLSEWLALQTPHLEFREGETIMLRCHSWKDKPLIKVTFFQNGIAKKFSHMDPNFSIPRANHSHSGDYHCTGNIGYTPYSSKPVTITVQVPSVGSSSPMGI

T6: cynomolgus monkey FcγRIIa2 extracellular domain, His-tagged (cynomolgus monkey)
T6 construct: also called cyno FcγRIIa2; cynoFcgRIIa2; not shown: C-terminal His-tag
T6 chain: T5 chain with P95T, T121A, I127K, A128S, K130N, D135N, R142Q

T7: cynomolgus monkey FcγRIIb extracellular domain, His-tagged (cynomolgus monkey)
T7 construct: also called cyno FcγRIIb; cynoFcγRIIb; not shown: C-terminal His-tag
T7 chain: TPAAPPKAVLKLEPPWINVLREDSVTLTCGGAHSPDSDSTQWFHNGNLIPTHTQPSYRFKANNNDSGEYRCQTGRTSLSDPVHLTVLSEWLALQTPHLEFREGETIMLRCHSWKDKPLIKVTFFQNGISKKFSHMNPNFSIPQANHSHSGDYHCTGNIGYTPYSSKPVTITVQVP

B1: M103205H795-MY448/M103202L889-SK1 (antibody, human IgG1, kappa)
heavy: QVTLKESGPVLVKPTETLTLTCTVSGIDLSHDDISWVRQAPGKGLEWVGIISYAGSTYYASWAKGRLTISKDTSKNQVVLTMTNMDPVDTATYYCARGVPAYSHGGDLWGQGTLVTVSSASTKGPSVFPLAPSSKSTSGGTAALGCLVKDYFPEPVTVSWNSGALTSGVHTFPAVLQSSGLYSLSSVVTVPSSSLGTQTYICNVNHKPSNTKVDKKVEPKSCDKTHTCPPCPAKELLTGPSVFLFPPKPKDTLMISRTPEVTCVVVDVSDEDPEVKFNWYVDGVEVHNAKTKPREEQYNSTYRVVSVLTVLHQDWLNGKEYKCKVSNKALPKPIEKTISKAKGQPREPQVYTLPPSREEMTKNQVSLTCLVKGFYPSDIAVEWESNGQPENNYKTTPPVLDSDGSFFLYSKLTVDKSRWQQGNVFSCSVMHEALHNHYTQKSLSLSP
light: DIVMTQSPATLSLSPGERATLSCTSSQSVYHANWLSWFQQKPGQPPKLLIYWASTLAYGVPSRFSGSGSGTDFTLTISSLQPEDAATYYCAGGYGGGRYAFGQGTKVEIKRTVAAPSVFIFPPSDEQLKSGTASVVCLLNNFYPREAKVQWKVDNALQSGNSQESVTEQDSKDSTYSLSSTLTLSKADYEKHKVYACEVTHQGLSSPVTKSFNRGEC
notes: copies: 2 + 2
B2: M103205H795-MY469/M103202L889-SK1 (antibody, human IgG1, kappa)
heavy: B1 heavy with A233P, K234P
light: B1 light
notes: copies: 2 + 2
B3: M103205H795-MY464/M103202L889-SK1 (antibody, human IgG1, kappa)
heavy: B1 heavy with A233I, K234P
light: B1 light
notes: copies: 2 + 2
B4: M103205H795-MY466/M103202L889-SK1 (antibody, human IgG1, kappa)
heavy: B1 heavy with A233L, K234P
light: B1 light
notes: copies: 2 + 2
B5: M103205H795-MY461/M103202L889-SK1 (antibody, human IgG1, kappa)
heavy: B1 heavy with A233F, K234P
light: B1 light
notes: copies: 2 + 2
B6: M103205H795-MY463/M103202L889-SK1 (antibody, human IgG1, kappa)
heavy: B1 heavy with A233H, K234P
light: B1 light
notes: copies: 2 + 2
B7: M103205H795-MY462/M103202L889-SK1 (antibody, human IgG1, kappa)
heavy: B1 heavy with A233G, K234P
light: B1 light
notes: copies: 2 + 2
B8: M103205H795-MY460/M103202L889-SK1 (antibody, human IgG1, kappa)
heavy: B1 heavy with A233E, K234P
light: B1 light
notes: copies: 2 + 2
B9: M103205H795-MY459/M103202L889-SK1 (antibody, human IgG1, kappa)
heavy: B1 heavy with A233D, K234P
light: B1 light
notes: copies: 2 + 2
B10: M103205H795-MY468/M103202L889-SK1 (antibody, human IgG1, kappa)
heavy: B1 heavy with A233N, K234P
light: B1 light
notes: copies: 2 + 2
B11: M103205H795-MY470/M103202L889-SK1 (antibody, human IgG1, kappa)
heavy: B1 heavy with A233Q, K234P
light: B1 light
notes: copies: 2 + 2
B12: M103205H795-MY467/M103202L889-SK1 (antibody, human IgG1, kappa)
heavy: B1 heavy with A233M, K234P
light: B1 light
notes: copies: 2 + 2
B13: M103205H795-MY465/M103202L889-SK1 (antibody, human IgG1, kappa)
heavy: B1 heavy with A233K, K234P
light: B1 light
notes: copies: 2 + 2

Assays:
[1] = biological target: T1, human FcγRIIaH extracellular domain, …; experiment: SPR (BIACORE); KD of SG1 divided by KD of variant;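 further: relative to parent M103205H795-SG1 carrying the SG1 human heavy chain constant region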
[2] = biological target: T2, human FcγRIIb extracellular domain, …; experiment: SPR (BIACORE); KD of SG1 divided by KD of variant;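 further: relative to parent M103205H795-SG1 carrying the SG1 human heavy chain constant region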
[3] = biological target: T3, human FcγRIIaR extracellular domain, …; experiment: SPR (BIACORE), captured antibody, FcgR as analyte
[4] = biological target: T4, cynomolgus monkey FcγRIIIaS …; experiment: SPR (BIACORE), captured antibody, FcgR as analyte
[5] = biological target: T1, human FcγRIIaH extracellular domain, …; experiment: SPR (BIACORE), captured antibody, FcgR as analyte
[6] = biological target: T2, human FcγRIIb extracellular domain, …; experiment: SPR (BIACORE), captured antibody, FcgR as analyte
[7] = biological target: T5, cynomolgus monkey FcγRIIa1 …; experiment: SPR (BIACORE), captured antibody, FcgR as analyte
[8] = biological target: T8, human FcγRIIIaV extracellular domain, His-tagged (human, UniProt P08637 17-208); experiment: SPR (BIACORE), captured antibody, FcgR as analyte
T8 construct: also called FcgRIIIaV; not shown: C-terminal His-tag

[9] = biological target: T6, cynomolgus monkey FcγRIIa2 …; experiment: SPR (BIACORE), captured antibody, FcgR as analyte
[10] = biological target: T7, cynomolgus monkey FcγRIIb extracellular …; experiment: SPR (BIACORE), captured antibody, FcgR as analyte

T8 sequence (P08637 17-208 F176V): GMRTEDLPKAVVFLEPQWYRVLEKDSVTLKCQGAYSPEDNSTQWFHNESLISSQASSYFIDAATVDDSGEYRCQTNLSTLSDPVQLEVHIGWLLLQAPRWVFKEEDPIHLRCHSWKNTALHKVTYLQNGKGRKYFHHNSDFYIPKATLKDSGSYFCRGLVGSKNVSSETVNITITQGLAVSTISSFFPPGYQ

KD fold (SG1 = 1) [1] [fold]	KD fold (SG1 = 1) [2] [fold]	Kd [3] [nM]	Kd [4] [nM]	Kd [5] [nM]	Kd [6] [nM]	Kd [7] [nM]	Kd [8] [nM]	Kd [9] [nM]	Kd [10] [nM]	Binder
0.7	0.5	2200	6500	930	8400	9600	13000	7500	2300	B1
3.5	1.9	430	2200	200	2400	2200	5900	2100	610	B2
4.1	2.9	260	1700	170	1600	1900	4400	1500	500	B3
4.1	3.3	280	1800	170	1400	1900	4300	1800	510	B4
3.8	2.7	340	2100	130	1700	1300	5400	1800	470	B5
3.1	2	520	1600	220	2800	2100	4300	1800	580	B6
2.9	2.4	490	1800	240	1900	1900	5400	1600	470	B7
2.7	1.9	550	2700	260	2400	3100	6700	3100	790	B8
1.8	1.8	560	3200	390	2500	5000	8700	4700	1100	B9
2.5	1.8	470	2300	280	2600	2800	6800	2500	650	B10
3.3	2	470	1700	220	2700	2200	5100	1800	550	B11
3.8	2.3	360	1700	180	2000	1900	4800	1900	510	B12
2.8	1.6	600	1900	250	2800	2000	5500	2800	630	B13
